The RNAGym collection of RNA variant scans (doi:10.1073/pnas.2313332121)
Fewer inactive variants are shown than the library holds.

B1: TPR 5TU (parent)
chain: GGAUCUUCUCGAUCUAACAAAAAAGACAAAUCUGCCACAAAGCUUGAGAGCAUCUUCGGAUGCAGAGGCGGCAGCCUUCGGUGGCGCGAUAGCGCCAACGUUCUCAACUAUGACACGCAAAACGCGUGCUCCGUUGAAUGGAGUUUAUCAUG

Variants of: B1
Assay: polymerase ribozyme fitness, log enrichment relative to wild type (log ratio); higher = more active; in vitro selection for triplet polymerase activity
Summary of the method: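 Mutant libraries were PCR-built and transcribed for each subunit of a heterodimeric triplet polymerase ribozyme and selected for one round in triplicate at −7 °C, frozen, before gel excision of extended constructs and streptavidin-bead capture. Input and output libraries were Illumina-sequenced, keeping genotypes with ≥10 input reads and ≥1 read per output. Fitness is a logarithmic ratio of genotype to wild-type enrichment, in base 2, using inverse-variance-weighted replicate averages.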

Variant	polymerase ribozyme fitness (log ratio)
GGAUCUUCUCGAUCUAACAAAAAAGACAAAUCUGUCACAAAGCUUGAGAGCAUCUUCGGAUGCAGAGGCGGCGGCCUUCGGUGGCGCGAUAGCGCCAACGUUCUCAACUAUGACACGCAAAACGCGUGCUCCGUUGAAUGGAGUUUAUCAUG [C35U A73G]	-0.161
GGAUCUUCUCGAUCUAACAAAAAAGACAAAUCUGUCACAAAGCUUGAGGGCAUCUUCGGAUGCAGAGGCGGCAGCCUUCGGUGGCGCGAUAGCGCCGACGUUCUCAACUAUGACACGCCAAACGCGUGCUCCGUUGAAUGGAGUUUAUCAUG [C35U A49G A97G A119C]	-2.09
GGAUCUUCUCGAUCUAACAAAAAAGACAAAUCUGUCACAAAGCUUGAGAGCAUCUUCGGAUGCAGAGGCGGCAGCCUUCGGUGGCGCGAUAGCGCCAACGUUCUCAACUAUGACUCGCAAAACGCGUGCUCCGUUGAAUGGAGUUUAUCAUG [C35U A115U]	-1.54
GGAUCUUCUCGAUCUAACAAAAAAGACAAAUCUGUAACAAAGCUUGAGAGCAUCGUCGGAUGCAGAGGCGGCAGCCUUCGGUGGCGCGAUAGCGCCAACGUUCUCAACUAUGACACGCAAAACGCGAGCUCCGUUGAAUGGAGUUUAUCAUG [C35U C36A U55G U127A]	-3.9
GGAUCUUCUCGAUCUAACAAAAAAGACAAAUCUGUCACAAGGCUUGAGAGCAUCUUCGGAUGCAGAGGCGGCAGCCUUCGGUGGCGCGAUAGCGCAAACGUUCUCAACUAUGACACGCAAAACGCGUGCUCCGUUGAAUGGAGAUUAUCAUG [C35U A41G C96A U144A]	-0.485
GGAUCUUCUCGAUCUAACAAAAAAGACAAAUCUGUCAAAAAGCUUGAGAGCAUCUUCGGAUGCAGAGGCGGCAGCCUUCGGUUGCGCGAUAGCGCCAACGUUCUCAACUAUGACACGCAAAACGCGUGCUCCGUUGAAUGGAGUUUAUCAUA [C35U C38A G83U G152A]	≤ -4.2
GGAUCUUCUCGAUCUAACAAAAAAGACAAAUCUGUCACAAAGCUUGAGCGCAUCUUCGGAUGCAGAGGCGGCAGCCUUAGGUGGCGAGAUAGCGCCAACGUUCUCAACUAUGACACGCUAAACGCGUGCUCCGUUGAAUGGAGUUUAUCAUG [C35U A49C C79A C87A A119U]	≤ -4.2
GGAUCUUCUCGAUCUAACAAAAAAGACAAAUCUGGCACAAAGCUUGAGAGCAUCGUCGGAAGCAGAGGCGGCAGCCUUGGGUGGCGCGAUAGGGCCAACGUUCUCAGCUAUGACACGCAAAACGCGUGCUCCGUUGAAUGGAGUUUAUCAUG [C35G U55G U61A C79G C93G A107G]	≤ -4.2
GGAUCUUCUCGAUCUAACAAAAAAGACAAAUCUGGCACAAAGCUUGAGAGCAUCAUCGGAUGCAGAGGCGGCAGCCUUCGGUGGCGCGAUAGCACCAACGGUCUCAACUAUGACACGCAAAACGCGUGCUUCGUUGAAUGGAGUUUAUCAUG [C35G U55A G94A U101G C131U]	≤ -4.2
GGAUCUUCUCGAUCUAACAAAAAAGACAAAUCUGUCACAAAGCUUGAGAGCAUCUUCGGAUGCAGAGGCGGCUGGGUUCGGUGGCGCGACAGCGCCAACGUUCUCAACUAUGACACGCAAAACGCGUGCUCCGUUGAAUGGAGUUUAUCAUG [C35U A73U C75G C76G U90C]	≤ -4.2
GGAUCUUCUCGAUCUAACAAAAAAGACAAAUCUGUCACAAAGCUUGAGGACAUCUUCGGAUGCAGAGGCGGCAGCCGUCGGUGGCGCGAUAGCGCUAACGUUCUCAACUAUGACACGCAAAACGCGUGCUCCGUUGAAUGGACUUUAUCGAG [C35U A49G G50A U77G C96U G143C A150G U151A]	≤ -4.2
GGAUCUUCUCGAUCUAACAAAAAAGACAAAUCUGGCACAAAGCUUGAGAGCAUCGUCGGAUGCAGAAGCGGCAGCCUUCGGUGGCGCGAUAUCGCCAACGUUCUCAACUAUGACACGCAAAACGCGUGCUCCGUUGAAUGGAGUUUAUCAUG [C35G U55G G67A G92U]	≤ -4.2
GGAUCUUCUCGAUCUAACAAAAAAGACAAAUCUGUCACAAAGCUUGAGAGCCUCUUCGGAUGCAGAGGCGGCAGCCUUCGGUGGUGCGAUAGCGCCAACGUUCUCAACUAUGACACUCAAAACGCGUGCUCCGUUGAAUGGAGUUUAUCAUG [C35U A52C C85U G117U]	-2.29
GGAUCUUCUCGAUCUAACAAAAAAGACAAAUCUGGCACAAAGCUUGAGAGCAUCUUCGGAUGCAGAGGCGGCAGCCUUCGGUGGCGCGAUAGCGCCAACGUUCUCAACUAUGACACGCAAAACGCGUGCUCCGUUGAACGGAGUUUAUCAUG [C35G U139C]	≤ -4.2
GGAUCUUCUCGAUCUAACAAAAAAGACAAAUCUGUCACAAAGCUUGAGAGCGUCUUCGGCUGCAGAGGCGGCAGCCUUCGGUGGCGCGAUAGCGCCAACGUUCUCAACUAUGACACGCAAUACGCGUGCUCCGUUGAAUGGAGUUUAUCAUG [C35U A52G A60C A121U]	-3.29
GGAUCUUCUCGAUCUAACAAAAAAGACAAAUCUGUCACAAAGCUUGAGAGCCUCUUCGGAUGCAGAGGCGGCAGCCUUCGGUGGCGCGAUAGCGCCAACGUUCUCAACUAUGACACGCAAAAUGCGUGCUCCGUUGAAUGGAGUUUAUCAUG [C35U A52C C123U]	-1.31
GGAUCUUCUCGAUCUAACAAAAAAGACAAAUCUGGCACAAAGCUUGAGAGCAUCGUCGGAUGCAGAGGCGGCAGCCUUCGAUGGCGCGAUAGCGCCAGCGUACUCAACUAUGACACGCAAAACGCGUGCUCCGUUGAAUGGAGUUUAUCAUG [C35G U55G G81A A98G U102A]	≤ -4.2
GGAUCUUCUCGAUCUAACAAAAAAGACAAAUCUGUCACAACGCUUGAGAGCAACUUCGGAUGCAGAGGCGGCAGGCUUCGGUGGCGCGAUAGCGCCAACGUUCUCAACUAUGAUACGCAAAACGCGUGCUCCGUUUAAUGGAGUUUAUCAUG [C35U A41C U53A C75G C114U G136U]	≤ -4.2
GGAUCUUCUCGAUCUAACAAAAAAGACAAAUCUGUCACAAAGCUUGAGAGCAUCUUCGGAUGCAGAGGCGGCAGCCUUCGGUGGCGCGAUGGCGCCAACGUUCUCAACUAUGACACGCAAAACGCGUGCUCCGUUGAAUGGAGUUUAUCAUG [C35U A91G]	-2.83

Variant	polymerase ribozyme fitness (log ratio)
GGAUCUUCUCGAUCUAACAAAAAAGACAAAUCUGUCACAAAGCUUGAGCGCAGCUUCGGAUGCAGAGGCGGCAGGCUUCGGUGGCGCGAUAACGCCAACGUUCUCAACUAUGACACGCUGAACGCGUGCUCCUUUGACUGGAGUUUAUCAUG [C35U A49C U53G C75G G92A A119U A120G G133U A138C]	≤ -4.2
GGAUCUUCUCGAUCUAACAAAAAAGACAAAUCUGUCACAAAGAUUGAGAGCAUCUUCUGAUGCAGAGGCGGCAGGCUUCGGUGGCGGGAUAGCGCCAACGUUCUCAACUAUGACACGCAAUAUGCGUGCUCCAUUGAAUGGAGUUUAUCAUG [C35U C43A G58U C75G C87G A121U C123U G133A]	≤ -4.2
GGAUCUUCUCGAUCUAACAAAAAAGACAAAUCUGUCACAAAGCUUGAGAGCAUCUUCGGAUGCAGAGGCGGCAGCCUUCGGUGGCGCGAUAGCGCCAACGUUCUCUACUAUGACACGCAAAACGCGUGCUCCGUUGAAUGGUGUUUAUCAUG [C35U A106U A142U]	-4.15
GGAUCUUCUCGAUCUAACAAAAAAGACAAAUCUGUCAGAAAGCUUGAGAGCAUCUUCGGAUGCAGAGGCGGCAGCCUUCGGUGGCACGAUAGCGCCAACGUUCUCAACUAUGACACGCAAAACGCAUGCUCCGUUUAAUGGAGUUUAUCAUG [C35U C38G G86A G126A G136U]	≤ -4.2
GGAUCUUCUCGAUCUAACAAAAAAGACAAAUCUGGCACAAAGCUUGAGAGCAUCGUCGGAUGCAGAGGCGGCAGCCUUCGGUGGGGCGAUAGCGCCAACGUUCUCAACUAUGACACGCAAAACGCGUGCUCCGUUGAAUGGAGAUUAUCAUG [C35G U55G C85G U144A]	≤ -4.2
GGAUCUUCUCGAUCUAACAAAAAAGACAAAUCUGUCACAAAGCUUGGGAGCAUCUUCGGAUGCAGAGGCGGCAGCCUUCGGUGGCGCGAUAGCGCCAAGGUUCUCAACUAUGACACGCAAAACGCGUGCUCCGUUGAAUGGAGUUUAUCAUA [C35U A47G C99G G152A]	-3.48
GGAUCUUCUCGAUCUAACAAAAAAGACAAAUCUGUCACAAAGCUUGCGAGCAUCUUCGGAUGCAGAGGCGGCAGCCUUCUGUGGCGUGAUAGCGCCAACGUUCUCAACUAUGACACGCAAAACGCGUGCUCCGUUGAAUGGAGUUUAUCAUG [C35U A47C G80U C87U]	-3.9
GGAUCUUCUCGAUCUAACAAAAAAGACAAAUCUGUCACAAAGCUUGAGAGCCUCAUCGGAUGCAGAGGCGGCAGCCUUCGGUGGCGCGAUAGUGCCAACGUUCUCAACUAUGACACGCAAAACGCGUGCUCCGUUGAAUGGAGUUUAUAAUG [C35U A52C U55A C93U C149A]	≤ -4.2
GGAUCUUCUCGAUCUAACAAAAAAGACAAAUCUGUCACAAAGCUUGAGGGCAUCUUCGGAUGCAGAGGCGGCAGCCUUCGGUGGCGCUAUAGGGCCAACGUUCUCAACUAUGACACGCAAAACGCGUGCUCCGUUGAAUGGAGUUUAUCAUG [C35U A49G G88U C93G]	≤ -4.2
GGAUCUUCUCGAUCUAACAAAAAAGACAAAUCUGGCACAAAGCUUGAGAGCAUCUUCGGAUGCAGAGGCGGCAGCCUGCGGUGGCGCGAUAGCGCCAAAGUUCUCAACUAUGACACGCAAAACGCGUGCUCCGUUGAAUGGAGUUUAUCAUG [C35G U78G C99A]	≤ -4.2
GGAUCUUCUCGAUCUAACAAAAAAGACAAAUCUGUCACAAGGCUUGAGAGCAUCUUCGGAUGCAGAGGCGGCAGCCUUCGGUGGUGCGAUAGCGCCAACGUUCUCAACUAUGACACGCAAAACGCGUGCUCCGUUGAAUGUAGUUUAUCAUG [C35U A41G C85U G141U]	1.25
GGAUCUUCUCGAUCUAACAAAAAAGACAAAUCUGUCACAAAGAUUGAGAGCAUCUUCGGAUGCAGAGGCGGCAGCCUUCGGUGGCGCGAUAGCGGCAACGCUCUCAACUAUGACACGCAAAACGCGUGCUCCGUUGAAUGGAGUUUAUCAUG [C35U C43A C95G U101C]	≤ -4.2
GGAUCUUCUCGAUCUAACAAAAAAGACAAAUCUGUCACAGAGCUUGAGAGUAUCUUCGGAUGCAGAGGCGGCAGCCUUCGCUGGCGAGAUAGCGCCAACGUUCUCAACUAUGACACGCAAAACGCGUGCUCCGUUGAAUGGAGUUUAUCAUG [C35U A40G C51U G81C C87A]	≤ -4.2
GGAUCUUCUCGAUCUAACAAAAAAGACAAAUCUGUCACAAAGCUUGAGGGCAUCUUCGGAUGCAGAGGCAGCAGCCUUCGGUGGCGCGAUAGCGGCAACGUUCUAAACUAUGACACGCAAAACGCGUGCUCCGUUGAAUGGAGUUUAUCAUG [C35U A49G G70A C95G C105A]	≤ -4.2
GGAUCUUCUCGAUCUAACAAAAAAGACAAAUCUGUCACAAAGCUUGCGAGCAUCUGCGGAUGCUGAGGCGGCAGCCUUCGGUGGCGCGAUAGCGCCAACGUUCUCUACUAUGACACGCAAAACGCGUGCUCCUUUGAAUGGAGUUUAUCAUG [C35U A47C U56G A64U A106U G133U]	≤ -4.2
GGAUCUUCUCGAUCUAACAAAAAAGACAAAUCUGUCACAAAGCUUGAGAGCCUCUUCGGAUGCAGAGGCGGCAGCCUUCGAUGGCUCGAUAGCGACAACGUUCUCAACUAUGACACGCAAAACGCGUGCUCCGUUGAAUGGAGUUUAUCAUG [C35U A52C G81A G86U C95A]	≤ -4.2
GGAUCUUCUCGAUCUAACAAAAAAGACAAAUCUGUCAGAAAGCUUGAGAGCAUCUACGGAUGCAGAGGCGGCAGCCUUCGGUGGCGCGAUAGCGCCAACGUUCUCAACUAUGACACGCAAAACGCGUGCUCCGUUGAAUGGAGUUUAUCAUG [C35U C38G U56A]	-1.43
GGAUCUUCUCGAUCUAACAAAAAAGACAAAUCUGUCACAAAGCUUGAGAGCAUCUUCGGAUGCAGAGGCGGCAGCCUUCGGUGGCGCGUUAGCGACAACGUUCUCAACUAUGACACGCAAAACGCAUGCUCCGUUGAAUGGCGUUUAUCAUG [C35U A89U C95A G126A A142C]	≤ -4.2
GGAUCUUCUCGAUCUAACAAAAAAGACAAAUCUGUCACAAAGCUUGAGAGCAUCUUCGGAUGCAGAGGCGGCUGCCUUCGGUGGCGCUAUAGCGCCAACGUUCUCAAGUAUGACACGCAAAACGCGUGCUCCGUUGAAUGGAGUUUAUCAUG [C35U A73U G88U C108G]	≤ -4.2
